Common to all, as to assay: BLI
The target of assay [1] is truncated human ACE2 (residues 19-613 with a C-terminal AviTag and 6xHis-tag), biotinylated (human) (UniProt Q9BYF1).
In assay [2] the target is human ACE2 polymorphism E35K (rs1348114695) (human) (UniProt Q9BYF1).
Assay [3] addresses human ACE2 polymorphism K26R (rs4646116) (human) (UniProt Q9BYF1).
Assay [4] has as its target human ACE2 polymorphism S19P (rs73635825) (human) (UniProt Q9BYF1).

“SARS-CoV-2 RBD of Beta (B.1.351) (from UniProt P0DTC2) (domain or fragment)” gave a t1/2 in assay [1] of 165.
In the case of “SARS-CoV-2 RBD of Delta (B.1.617.2) (from UniProt P0DTC2) (domain or fragment)”, in assay [2], the Kd – broadly, the constant that tells how readily two partners part at equilibrium – was 43.3 nM. In assay [1], this substance displayed a t1/2 of 2.4 min.
For the substance “SARS-CoV-2 Omicron BA.2 RBD (from UniProt P0DTC2) (domain or fragment)”, in assay [1], the t1/2 amounted to 2.7 min. In addition, the Kd in assay [3] was found to be 5.18 nM; in assay [4], 4.97 nM.
In assay [4], “SARS-CoV-2 ancestral receptor-binding domain (RBD), recombinant (from UniProt P0DTC2) (domain or fragment)” yielded a Kd of 14.4 nM.

The values are drawn from PMC10372118.
